According to doi:10.1101/868190 (bioRxiv, 2019):
Ends that are not written are not given here.

T1: His-hPPARγ (231-505) ligand-binding domain, wild-type (human, UniProt P37231-1 231-505)
T1 sequence: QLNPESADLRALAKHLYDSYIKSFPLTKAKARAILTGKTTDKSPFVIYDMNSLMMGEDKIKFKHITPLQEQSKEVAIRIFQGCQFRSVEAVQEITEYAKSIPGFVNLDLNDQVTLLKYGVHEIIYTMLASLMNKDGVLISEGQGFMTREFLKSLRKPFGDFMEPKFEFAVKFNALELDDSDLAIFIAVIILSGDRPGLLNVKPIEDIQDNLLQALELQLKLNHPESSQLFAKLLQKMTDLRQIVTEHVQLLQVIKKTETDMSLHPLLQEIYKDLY


Target: T1, His-hPPARγ (231-505) ligand-binding …
Assay: MST

Row | binding result | Binder
1 | binds | NLGLEDIIRKALMG (also: fluorescent label, dye and position not given here) [fluorescent NCoR1 peptide (2260-NLGLEDIIRKALMG-2273)]
2 | binds | EAEEPSLLKKLLLAPA (also: fluorescent label, dye and position not given here) [fluorescent PGC1α peptide (137-EAEEPSLLKKLLLAPA-152)]
